Experimental data published in patent publication US20220177552A1 (CELLTRION, published 2022).
Where a chain is given by its changes, count along the chain named.

Legend:
Assay in all cases: cell-based or functional assay
[1] = molecular target: S protein of Korean isolate virus (MERS-CoV/Korea/KNIH/002_05_2015) (MERS-CoV, Korean isolate …)
[2] = molecular target: S protein of Saudi isolate virus (MERS/HCoV/KSA/EMC/2012) (MERS-CoV, Saudi isolate …)
[3] = molecular target: S protein of Jordan isolate virus (MERS-HCoV/Jordan/01) (MERS-CoV, Jordan isolate …)

B1: Antibody 5 (fully human antibody) (antibody, V domains shown)
VH: EVQLVQSGAEVKKPGSSVKVSCKASGGTFSSYAISWVRQAPGQGLEWMGRIIPIFGIAKYAQKFQGRVTITADRSTSTAYMELSSLRSEDTAVYYCVTRSGDYSGSSGLAFDIWGQGTMVTVSS
VL: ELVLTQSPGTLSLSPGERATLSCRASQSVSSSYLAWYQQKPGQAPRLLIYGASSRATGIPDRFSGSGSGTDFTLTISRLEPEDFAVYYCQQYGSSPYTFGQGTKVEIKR
Question: Which “IC50, PRNT, Korean isolate virus, Second experiment” value [1] does the source give for B1 here?
Answer: 0.00025 mg/L

Question: What about the “Neutralizing activity against Saudi virus (MERS-CoV_KSA/EMC/2012) IC50” value [2] of the same binder?
Answer: 0.06 mg/L

Question: And the “Neutralizing activity against Jordan virus (MERS-HCoV/Jordan/01) IC50” value [3]?
Answer: 0.09 mg/L

B2: Antibody 1 (fully human antibody) (antibody, V domains shown)
VH: QVQLVQSGAEVKKPGSSVKVSCKASGGTFSSYVISWVRQAPGQGLEWVGRIIPIFGTVKYAQKFQGRVTITADKSTSTAYMELSSLRSEDTAVYYCARDLPGDSRDGYNYDAFDIWGQGTLVTVSL
VL: GELELTQPPSVSAAPGQKVTISCSGSSSNIGNNYVSWYQQLPGTAPKLLIYDNNKRPSGIPDRFSGSKSGTSATLGITGLQTGDEADYYCGTWDSSLNAGVFGGGTELTVLG
Question: Which results are given for B2?
Answer: IC50, PRNT, Korean isolate virus, First experiment [1]: 0.0004 mg/L; Neutralizing activity against Saudi virus (MERS-CoV_KSA/EMC/2012) IC50 [2]: 0.44 mg/L; Neutralizing activity against Jordan virus (MERS-HCoV/Jordan/01) IC50 [3]: 0.11 mg/L

B3: Antibody 2 (fully human antibody) (antibody, V domains shown)
VH: B2 VH with Q1E, V33A, V48M, T57I, V58A, L121M, L126S
VL: GELVLTQPPSVSAAPGQKVTISCSGSSSNIGNNFVSWYQQLPGTAPKLLIYDNDKRPSGIPDRFSGSKSGTSATLGITGLQTGDEADYYCATWDRSLSVELFGGGTKVTVLG
Question: For B3, which “IC50, PRNT, Korean isolate virus, First experiment” value [1] is on record?
Answer: 0.0009 mg/L

Question: And the “Neutralizing activity against Saudi virus (MERS-CoV_KSA/EMC/2012) IC50” value [2]?
Answer: 0.09 mg/L

Question: What about the “Neutralizing activity against Jordan virus (MERS-HCoV/Jordan/01) IC50” value [3] of the same binder?
Answer: 0.06 mg/L

B4: Antibody 3 (fully human antibody) (antibody, V domains shown)
VH: QVQLQESGPGLVKPSETLSLTCTVSGGSINSRSYYWGWIRQPPGKGLEWIGSIYYSGSTYYNPSLKSRVTISVDTSKNQFSLKLRSVTAADTAVYYCARADREHVWGSYDGPGSPFDYWGQGTLVTVSS
VL: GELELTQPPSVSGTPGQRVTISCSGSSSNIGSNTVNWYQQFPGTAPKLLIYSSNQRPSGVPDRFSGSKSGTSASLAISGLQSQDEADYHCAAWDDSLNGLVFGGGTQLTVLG
Question: How did the “IC50, PRNT, Korean isolate virus, Second experiment” value [1] turn out when B4 was run?
Answer: 0.0032 mg/L

Question: What about the “Neutralizing activity against Saudi virus (MERS-CoV_KSA/EMC/2012) IC50” value [2] of the same binder?
Answer: 0.13 mg/L

Question: And the “Neutralizing activity against Jordan virus (MERS-HCoV/Jordan/01) IC50” value [3]?
Answer: 0.11 mg/L

B5: Antibody 4 (fully human antibody) (antibody, V domains shown)
VH: B4 VH with H104Y
VL: GELVLTQPPSVSEAPRQRVTISCSGSSSNIGNNAVNWYLQVPGTAPKLLIYGDHQRPSGVPDRFSGSKSGTSASLSISGLQSEDEADYYCAAWDDSLNGVVFGGGTKLTVLG
Question: Which results are given for B5?
Answer: IC50, PRNT, Korean isolate virus, Second experiment [1]: 0.00165 mg/L; Neutralizing activity against Saudi virus (MERS-CoV_KSA/EMC/2012) IC50 [2]: 0.06 mg/L; Neutralizing activity against Jordan virus (MERS-HCoV/Jordan/01) IC50 [3]: 0.05 mg/L
